IntAct's records for PubMed 18589438

B1: Phorbol-12-myristate-13-acetate-induced protein 1 (Mus musculus), Q9JM54 (parent)
chain: MPGRKARRNAPVNPTRAELPPEFAAQLRKIGDKVYCTWSAPDITVVLAQMPGKSQKSRMRSPSPTRVPADLKDECAQLRRIGDKVNLRQKLLNLISKLFNLVT
B2: Bcl-2-binding component 3 (Mus musculus), Q99ML1 (parent)
chain: MARARQEGSSPEPVEGLARDSPRPFPLGRLMPSAVSCSLCEPGLPAAPAAPALLPAAYLCAPTAPPAVTAALGGPRWPGGHRSRPRGPRPDGPQPSLSPAQQHLESPVPSAPEALAGGPTQAAPGVRVEEEEWAREIGAQLRRMADDLNAQYERRRQEEQHRHRPSPWRVMYNLFMGLLPLPRDPGAPEMEPN

Variants of: B1
Conditions: with mcl1_mouse Mcl1, P97287
Chain of mcl1_mouse Mcl1, P97287 (P97287 whole entry): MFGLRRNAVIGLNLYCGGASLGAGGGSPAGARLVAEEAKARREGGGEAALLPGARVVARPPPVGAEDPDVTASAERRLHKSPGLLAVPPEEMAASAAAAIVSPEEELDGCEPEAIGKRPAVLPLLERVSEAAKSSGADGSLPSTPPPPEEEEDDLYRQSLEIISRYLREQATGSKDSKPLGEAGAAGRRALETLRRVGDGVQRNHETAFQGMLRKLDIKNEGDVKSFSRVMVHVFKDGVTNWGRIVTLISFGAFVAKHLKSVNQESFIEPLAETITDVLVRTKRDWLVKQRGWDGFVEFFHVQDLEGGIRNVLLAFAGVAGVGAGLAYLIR

Row | Variant | effect of a mutation on the interaction
1 | MPGRKARRNAPVNPTRAELPPEFAAQLRKIGDKVYCTWSAPDITVVLAQMPGKSQKSRMRSPSPTRVPADLKDFCAQLRRIGDKVNLRQKLLNLISKLFNLVT [E74F] | increasing interaction strength

Variants of: B2
Conditions: with mcl1_mouse Mcl1, P97287

Row | Variant | effect of a mutation on the interaction
2 | MARARQEGSSPEPVEGLARDSPRPFPLGRLMPSAVSCSLCEPGLPAAPAAPALLPAAYLCAPTAPPAVTAALGGPRWPGGHRSRPRGPRPDGPQPSLSPAQQHLESPVPSAPEALAGGPTQAAPGVRVEEEEWAREIGAQLRRIADDLNAQYERRRQEEQHRHRPSPWRVMYNLFMGLLPLPRDPGAPEMEPN [M144I] | increasing interaction
